# Measurements: patent US20160257732A1 (published 2016)
# Where “and” joins values, the source holds several entries; their conditions need not be identical. Equal values may be shown once. Read-outs that look alike come from different tables or passages of the source.
# Assays:
# Experiment in all cases: cell-based or functional assay
# [1] = target: HA of A/Fort Monmouth/1/47 (H1N1) (influenza A virus)
# [2] = target: HA of A/New Jersey/8/76 (H1N1) (influenza A virus)
# [3] = target: HA of A/Kawasaki/9/86 (H1N1) (influenza A virus)
# [4] = target: HA of ca A/Texas/36/91 (H1N1) (influenza A virus)
# [5] = target: HA of ca A/Beijing/262/95 (H1N1) (influenza A virus)
# [6] = target: HA of ca A/New Caledonia/20/99 (H1N1) (influenza A virus)
# [7] = target: HA of ca A/swine/Missouri/06 (H2N3) (influenza A virus)
# [8] = target: HA of ca A/Vietnam/1203/04 (H5N1) (influenza A virus)
# [9] = target: HA of ca A/Hong Kong/213/03 (H5N1) (influenza A virus)
# [10] = target: HA of ca A/teal/Hong Kong/W312/97 (H6N1) (influenza A virus)
# [11] = target: T1, HA of ca A/chicken/Hong Kong/G9/97 (H9N2) (influenza A virus)
# [12] = target: HA of A/Hong Kong/8/68 (H3N2) (influenza A virus)
# [13] = target: HA of A/Victoria/3/75 (H3N2) (influenza A virus)
# [14] = target: HA of ca A/Sydney/5/97 (H3N2) (influenza A virus)
# [15] = target: HA of ca A/Panama/2007/99 (H3N2) (influenza A virus)
# [16] = target: HA of A/Wyoming/03/03 (H3N2) (influenza A virus)
# [17] = target: HA of A/Wisconsin/67/05 (H3N2) (influenza A virus)
# [18] = target: HA of ca A/Perth/16/09 (H3N2) (influenza A virus)
# [19] = target: HA of ca A/Netherlands/219/03 (H7N7) (influenza A virus)
# [20] = target: T2, HA of ca A/Brit. Columbia/CN-6/04 (H7N3-LP) (influenza A virus)
# [21] = target: HA of A/Fort Monmouth/1/47 (H1N1) (influenza A virus); remark: listed apart in the source
# [22] = target: HA of A/New Jersey/8/76 (H1N1) (influenza A virus); remark: listed apart in the source
# [23] = target: HA of A/Kawasaki/9/86 (H1N1) (influenza A virus); remark: listed apart in the source
# [24] = target: HA of ca A/Texas/36/91 (H1N1) (influenza A virus); remark: listed apart in the source
# [25] = target: HA of ca A/Beijing/262/95 (H1N1) (influenza A virus); remark: listed apart in the source
# [26] = target: HA of ca A/New Caledonia/20/99 (H1N1) (influenza A virus); remark: listed apart in the source
# HA of virus H1-BS10 = target: HA of virus H1-BS10
# [27] = target: HA of ca A/Japan/57 (H2N2) (influenza A virus)
# [28] = target: HA of ca A/swine/Missouri/06 (H2N3) (influenza A virus); remark: listed apart in the source
# [29] = target: HA of ca A/Vietnam/1203/04 (H5N1) (influenza A virus); remark: listed apart in the source
# [30] = target: HA of ca A/Hong Kong/213/03 (H5N1) (influenza A virus); remark: listed apart in the source
# [31] = target: HA of ca A/mallard/Alberta/89/85 (H6N2) (influenza A virus)
# [32] = target: HA of ca A/teal/Hong Kong/W312/97 (H6N1) (influenza A virus); remark: listed apart in the source
# [33] = target: T1, HA of ca A/chicken/Hong Kong/G9/97 …; remark: listed apart in the source
# [34] = target: HA of A/Hong Kong/8/68 (H3N2) (influenza A virus); remark: listed apart in the source
# [35] = target: HA of A/Victoria/3/75 (H3N2) (influenza A virus); remark: listed apart in the source
# [36] = target: HA of ca A/Sydney/5/97 (H3N2) (influenza A virus); remark: listed apart in the source
# [37] = target: HA of ca A/Panama/2007/99 (H3N2) (influenza A virus); remark: listed apart in the source
# [38] = target: HA of A/Wisconsin/67/05 (H3N2) (influenza A virus); remark: listed apart in the source
# [39] = target: HA of ca A/Perth/16/09 (H3N2) (influenza A virus); remark: listed apart in the source
# [40] = target: HA of A/Victoria/361/11 (H3N2) (influenza A virus)
# [41] = target: HA of ca A/Netherlands/219/03 (H7N7) (influenza A virus); remark: listed apart in the source
# [42] = target: T2, HA of ca A/Brit. Columbia/CN-6/04 …; remark: listed apart in the source
# [43] = target: HA of swine-origin A/Minnesota/11/2010 H3N2 virus (influenza A virus)
binder,measurement,setting,value
"Antibody 10 (antibody, V domains shown) VH: QVQLQQSGPGLVKPSQTLSLTCAISGDSVSSNSATWNWIRQSPSRGLEWLGRTYYRSKWYNDYADFLKRRITINPDTSNNEVSLRLTSVTPDDTALYYCARGGHITVFGVNIDAFDVWGQGTMVTVSS VL: DIQMTQSPSSLSASVGDRITISCRTSQSLRSYLHWYQQKPGKAPKLLIYASSTLQSGVPSRFSGSGSGTDFTLTISNLQPEDFATYYCQLSRTFGQGTKVEIK","Neutralization IC50, H1-FM47",[1],1.11 µg/mL
same,"Neutralization IC50, H1-NJ76",[2],0.15 µg/mL
same,"Neutralization IC50, H1-Kaw86",[3],1.62 µg/mL
same,"Neutralization IC50, H1-TX91",[4],0.48 µg/mL
same,"Neutralization IC50, H1-BJ95",[5],4.46 µg/mL
same,"Neutralization IC50, H1-Ncal99",[6],1.26 µg/mL
same,"Neutralization IC50, H2-MO06",[7],1.04 µg/mL
same,"Neutralization IC50, H5-VM04",[8],2.21 µg/mL
same,"Neutralization IC50, H5-HK03",[9],1.6 µg/mL
same,"Neutralization IC50, H6-HK97",[10],1.05 µg/mL
same,"Neutralization IC50, H9-HK97",[11],1.76 µg/mL
same,"Neutralization IC50, H3-HK68",[12],0.85 µg/mL
same,"Neutralization IC50, H3-Vic75",[13],0.91 µg/mL
same,"Neutralization IC50, H3-Syd97",[14],9.29 µg/mL
same,"Neutralization IC50, H3-Pa99",[15],18.7 µg/mL
same,"Neutralization IC50, H3-Wy03",[16],1.52 µg/mL
same,"Neutralization IC50, H3-WI05",[17],4.46 µg/mL
same,"Neutralization IC50, H3-Perth09",[18],2.56 µg/mL
same,"Neutralization IC50, H7-NLD03",[19],3.8 µg/mL
same,"Neutralization IC50, H7-BC04",[20],3.59 µg/mL
"Antibody 15 (antibody, V domains shown) VH: QVQLQQSGPGLVKPSQTLSLTCAISGDSVSSNNAVWNWIRQSPSRGLEWLGRTYYRSKWYNDYAESVKSRITINPDTSKNQFSLQLNSVTPEDTAVYYCARSGHITVFGVNVDAFDMWGQGTTVTVSS VL: DIQMTQSPSSLSASVGDRVTITCRTSQSLSSYTHWYQQKPGKAPKLLIYAASSRGSGVPSRFSGSGSGTDFTLTISSLQPEDFATYYCQQSRTFGQGTKVEIK","Neutralization IC50, H1-FM47",[21],0.35 µg/mL
same,"Neutralization IC50, H1-NJ76",[22],0.25 µg/mL
same,"Neutralization IC50, H1-Kaw86",[23],0.48 µg/mL
same,"Neutralization IC50, H1-TX91",[24],0.13 µg/mL
same,"Neutralization IC50, H1-BJ95",[25],1.81 µg/mL
same,"Neutralization IC50, H1-Ncal99",[26],0.79 µg/mL
same,"Neutralization IC50, H1-BS10",HA of virus H1-BS10,1.89 µg/mL
same,"Neutralization IC50, H2-JP57",[27],0.33 µg/mL
same,"Neutralization IC50, H2-MO06",[28],0.83 µg/mL
same,"Neutralization IC50, H5-VM04",[29],0.28 µg/mL
same,"Neutralization IC50, H5-HK03",[30],0.05 µg/mL
same,"Neutralization IC50, H6-AB85",[31],0.19 µg/mL
same,"Neutralization IC50, H6-HK97",[32],0.33 µg/mL
same,"Neutralization IC50, H9-HK97",[33],0.35 µg/mL
same,"Neutralization IC50, H3-HK68",[34],0.5 µg/mL
same,"Neutralization IC50, H3-Vic75",[35],0.35 µg/mL
same,"Neutralization IC50, H3-Syd97",[36],1.79 µg/mL
same,"Neutralization IC50, H3-Pa99",[37],3.39 µg/mL
same,"Neutralization IC50, H3-WI05",[38],1.3 µg/mL
same,"Neutralization IC50, H3-Perth09",[39],0.5 µg/mL
same,"Neutralization IC50, H3-VC11",[40],1.29 µg/mL
same,"Neutralization IC50, H7-NLD03",[41],1.3 µg/mL
same,"Neutralization IC50, H7-BC04",[42],1.25 µg/mL
same,"Neutralizing activity IC50, swine-origin A/Minnesota/11/2010",[43],0.9 µg/mL and 2.7 µg/mL
